Residue numbers refer to the chain shown, from its start. Where two headings read alike, the source gives them in different places. One block for each molecule: values may come before it.
Assays:
[1] = biological target: Factor VIII A3C1C2 subunit A3C1C2 (Homo sapiens) (UniProt P00451); details: cited from earlier work
[2] = biological target: Factor VIII A1/A3C1C2 dimer A1/A3C1C2 (Homo sapiens) (UniProt P00451); details: cited from earlier work
[3] = biological target: Factor VIII A1/A3C1C2 dimer A1/A3C1C2 (Homo sapiens) (UniProt P00451); test: FXa generation assay; details: cited from earlier work
[4] = biological target: T1, Factor VIIIa A1/A3C1C2 dimer A1/A3C1C2 (Homo sapiens, UniProt P00451); test: FVIIIa reconstitution assay
T1 chain 1: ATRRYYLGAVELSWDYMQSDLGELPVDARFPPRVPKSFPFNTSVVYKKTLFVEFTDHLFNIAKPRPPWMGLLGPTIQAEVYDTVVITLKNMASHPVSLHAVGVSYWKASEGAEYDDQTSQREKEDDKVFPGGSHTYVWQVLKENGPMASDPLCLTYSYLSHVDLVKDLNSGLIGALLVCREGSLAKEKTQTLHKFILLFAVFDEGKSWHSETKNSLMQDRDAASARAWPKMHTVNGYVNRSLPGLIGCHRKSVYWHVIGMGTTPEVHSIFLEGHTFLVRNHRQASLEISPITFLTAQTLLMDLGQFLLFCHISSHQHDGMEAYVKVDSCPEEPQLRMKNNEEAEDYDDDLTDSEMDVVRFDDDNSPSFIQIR
T1 chain 2: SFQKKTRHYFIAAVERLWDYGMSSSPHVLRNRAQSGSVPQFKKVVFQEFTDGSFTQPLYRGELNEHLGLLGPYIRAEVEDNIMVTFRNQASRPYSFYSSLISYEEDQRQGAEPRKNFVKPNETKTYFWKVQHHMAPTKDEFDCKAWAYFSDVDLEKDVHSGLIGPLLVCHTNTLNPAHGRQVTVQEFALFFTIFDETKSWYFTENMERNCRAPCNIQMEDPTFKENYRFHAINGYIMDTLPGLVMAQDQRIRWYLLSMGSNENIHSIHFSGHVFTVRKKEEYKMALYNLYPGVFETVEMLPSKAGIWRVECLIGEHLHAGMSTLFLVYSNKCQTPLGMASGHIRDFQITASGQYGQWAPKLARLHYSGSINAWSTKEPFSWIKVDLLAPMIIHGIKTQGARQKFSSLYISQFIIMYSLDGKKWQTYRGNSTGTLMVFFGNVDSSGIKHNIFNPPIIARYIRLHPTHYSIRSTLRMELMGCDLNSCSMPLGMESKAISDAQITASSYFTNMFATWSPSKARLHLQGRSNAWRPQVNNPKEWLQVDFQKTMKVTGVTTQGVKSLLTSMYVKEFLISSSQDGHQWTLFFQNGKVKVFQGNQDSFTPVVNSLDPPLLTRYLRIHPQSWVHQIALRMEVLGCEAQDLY

Molecule: Factor VIII A1 subunit A1 (from UniProt P00451)
Kd [1]: 60 nM

Molecule: Factor VIII A2 subunit A2 (from UniProt P00451)
Kd [2]: 260 nM
Kd [3]: 30 nM

Kd [4]: 56.3 nM
B1: Factor VIIIa A2 subunit A2 (protein)
chain: SVAKKHPKTWVHYIAAEEEDWDYAPLVLAPDDRSYKSQYLNNGPQRIGRKYKKVRFMAYTDETFKTREAIQHESGILGPLLYGEVGDTLLIIFKNQASRPYNIYPHGITDVRPLYSRRLPKGVKHLKDFPILPGEIFKYKWTVTVEDGPTKSDPRCLTRYYSSFVNMERDLASGLIGPLLICYKESVDQRGNQIMSDKRNVILFSVFDENRSWYLTENIQRFLPNPAGVQLEDPEFQASNIMHSINGYVFDSLQLSVCLHEVAYWYILSIGAQTDFLSVFFSGYTFKHKMVYEDTLTLFPFSGETVFMSMENPGLWILGCHNSDFRNRGMTALLKVSSCDKNTGDYYEDSYEDISAYLLSKNNAIEPR

Kd [4]: 10 nM
B2: Factor VIIIa A2 subunit A2 (protein)
chain: B1 chain with D128V

Source: PMC4469990 (2015)
